Assay [1] addresses T1, recombinant human TNF-alpha (rhTNF-α) (human, UniProt P01375 77-233). Nature of the assay: cell-based or functional assay.
The target in assay [2] is T1, recombinant human TNF-alpha (rhTNF-α). As to the kind of experiment: method not stated (data not shown).

The Kd is the constant that tells how readily two partners part at equilibrium. For orientation: koff means the rate constant with which the complex falls apart. In general, kon refers to the second-order rate constant of association.

T1 sequence (P01375 77-233 limits assumed): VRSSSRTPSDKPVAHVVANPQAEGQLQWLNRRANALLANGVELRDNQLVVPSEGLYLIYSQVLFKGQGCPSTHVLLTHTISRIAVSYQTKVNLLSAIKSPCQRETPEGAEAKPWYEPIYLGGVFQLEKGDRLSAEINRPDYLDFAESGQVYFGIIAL

B1: ESBA105 (scFv)
scFv: DIVMTQSPSSLSASVGDRVTLTCTASQSVSNDVVWYQQRPGKAPKLLIYSAFNRYTGVPSRFSGRGYGTDFTLTISSLQPEDVAVYYCQQDYNSPRTFGQGTKLEVKRGGGGSGGGGSGGGGSSGGGSQVQLVQSGAEVKKPGASVKVSCTASGYTFTHYGMNWVRQAPGKGLEWMGWINTYTGEPTYADKFKDRFTFSLETSASTVYMELTSLTSDDTAVYYCARERGDAMDYWGQGTLVTVSS
notes: expressed in and purified from E. coli; 26 kDa; also called E105; anti-TNFalpha single-chain antibody (scFv) ESBA105
For B1, in assay [1], the “EC50 in the L929 TNF-α assay (rescue of actinomycin D sensitized mouse L929 fibroblasts from rhTNF-α induced apoptosis, XTT)” value stood at 0.0125 mg/L. Besides, in assay [2], the Kd turned out to be 2.19 nM, the koff was 0.0126 s⁻¹ and the kon came to 5.72e+06 M⁻¹ s⁻¹.

The record behind these values is patent publication US20110002927A1 (DELENEX THERAPEUTICS, published 2011).
